Experiment [1] concerns the target human complement factor H (human) (UniProt P08603). As to the kind of experiment: ELISA, vs respective wildtype fHbp.
The target of experiment [2] is T1, human complement factor H (human, UniProt P08603 19-1231).
T1 construct: also called human fH; fH
Kind of experiment: ELISA, vs respective wildtype fHbp. In general terms: ELISA stands for enzyme-linked immunosorbent assay.

Experiment [3] concerns the target T1, human complement factor H. Kind of experiment: ELISA, fHbp on plate.

T1 sequence (P08603 19-1231 limits assumed): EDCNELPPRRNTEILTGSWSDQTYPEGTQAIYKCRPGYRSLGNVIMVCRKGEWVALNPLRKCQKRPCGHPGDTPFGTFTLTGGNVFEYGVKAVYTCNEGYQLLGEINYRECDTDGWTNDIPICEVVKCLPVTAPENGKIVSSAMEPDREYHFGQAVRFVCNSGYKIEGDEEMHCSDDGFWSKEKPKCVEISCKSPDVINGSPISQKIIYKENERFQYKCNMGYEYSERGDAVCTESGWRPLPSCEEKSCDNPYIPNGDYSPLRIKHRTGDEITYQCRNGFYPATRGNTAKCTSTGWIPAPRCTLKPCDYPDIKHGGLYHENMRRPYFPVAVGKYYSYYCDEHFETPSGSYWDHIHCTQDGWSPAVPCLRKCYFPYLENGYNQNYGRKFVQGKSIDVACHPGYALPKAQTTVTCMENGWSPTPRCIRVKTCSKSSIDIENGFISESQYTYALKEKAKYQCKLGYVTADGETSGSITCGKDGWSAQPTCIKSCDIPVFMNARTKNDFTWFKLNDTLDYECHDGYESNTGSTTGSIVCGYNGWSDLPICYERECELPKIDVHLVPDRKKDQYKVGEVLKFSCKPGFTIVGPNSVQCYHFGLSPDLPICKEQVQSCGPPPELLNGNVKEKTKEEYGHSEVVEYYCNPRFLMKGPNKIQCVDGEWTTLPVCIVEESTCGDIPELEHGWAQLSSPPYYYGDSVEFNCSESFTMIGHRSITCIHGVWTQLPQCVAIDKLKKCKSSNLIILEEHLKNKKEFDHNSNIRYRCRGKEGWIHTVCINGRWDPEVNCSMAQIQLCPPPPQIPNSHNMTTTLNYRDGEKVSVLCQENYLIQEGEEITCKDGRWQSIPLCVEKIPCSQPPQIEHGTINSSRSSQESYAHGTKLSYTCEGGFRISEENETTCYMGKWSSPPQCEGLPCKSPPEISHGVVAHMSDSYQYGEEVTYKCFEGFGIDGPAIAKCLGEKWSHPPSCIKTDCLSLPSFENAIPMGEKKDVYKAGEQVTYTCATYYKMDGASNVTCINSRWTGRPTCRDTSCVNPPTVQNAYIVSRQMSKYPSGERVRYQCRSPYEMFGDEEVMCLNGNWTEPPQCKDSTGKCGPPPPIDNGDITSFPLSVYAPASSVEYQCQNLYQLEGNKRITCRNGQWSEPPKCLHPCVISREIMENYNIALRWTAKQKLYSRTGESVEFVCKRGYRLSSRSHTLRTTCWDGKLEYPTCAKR
human complement factor H (human), sequence (P08603 19-1231 limits assumed): as above

B1: fHbp ID 22 R80A mutant (protein)
chain: CSSGGGGVAADIGAGLADALTAPLDHKDKSLQSLTLDQSVRKNEKLKLAAQGAEKTYGNGDSLNTGKLKNDKVSRFDFIAQIEVDGQLITLESGEFQIYKQDHSAVVALQIEKINNPDKIDSLINQRSFLVSGLGGEHTAFNQLPSGKAEYHGKAFSSDDPNGRLHYSIDFTKKQGYGRIEHLKTPEQNVELASAELKADEKSHAVILGDTRYGGEEKGTYHLALFGDRAQEIAGSATVKIREKVHEIGIAGKQ
In the case of B1, in experiment [1], the Fold-Decrease in fH binding is over 50 fold.

B2: fHbp ID 22 E218A mutant (protein)
chain: CSSGGGGVAADIGAGLADALTAPLDHKDKSLQSLTLDQSVRKNEKLKLAAQGAEKTYGNGDSLNTGKLKNDKVSRFDFIRQIEVDGQLITLESGEFQIYKQDHSAVVALQIEKINNPDKIDSLINQRSFLVSGLGGEHTAFNQLPSGKAEYHGKAFSSDDPNGRLHYSIDFTKKQGYGRIEHLKTPEQNVELASAELKADEKSHAVILGDTRYGGEAKGTYHLALFGDRAQEIAGSATVKIREKVHEIGIAGKQ
Consider B2, for which the Fold-Decrease in fH binding in experiment [1] is over 50 fold.

B3: fHbp ID 22 E248A mutant (protein)
chain: CSSGGGGVAADIGAGLADALTAPLDHKDKSLQSLTLDQSVRKNEKLKLAAQGAEKTYGNGDSLNTGKLKNDKVSRFDFIRQIEVDGQLITLESGEFQIYKQDHSAVVALQIEKINNPDKIDSLINQRSFLVSGLGGEHTAFNQLPSGKAEYHGKAFSSDDPNGRLHYSIDFTKKQGYGRIEHLKTPEQNVELASAELKADEKSHAVILGDTRYGGEEKGTYHLALFGDRAQEIAGSATVKIREKVHAIGIAGKQ
In turn, B3 displayed a Fold-Decrease in fH binding in experiment [1] of over 50 fold.

B4: fHbp ID 22, wild-type (variant group 2, modular group III) (other)
chain: CSSGGGGVAADIGAGLADALTAPLDHKDKSLQSLTLDQSVRKNEKLKLAAQGAEKTYGNGDSLNTGKLKNDKVSRFDFIRQIEVDGQLITLESGEFQIYKQDHSAVVALQIEKINNPDKIDSLINQRSFLVSGLGGEHTAFNQLPSGKAEYHGKAFSSDDPNGRLHYSIDFTKKQGYGRIEHLKTPEQNVELASAELKADEKSHAVILGDTRYGGEEKGTYHLALFGDRAQEIAGSATVKIREKVHEIGIAGKQ
notes: Recombinant; also called ID 22 (III); WT ID 22
With B4, the “Fold-Decrease in fH binding” value in experiment [2] stood at 0 fold.

B5: fHbp ID 22 D211A mutant (protein)
chain: CSSGGGGVAADIGAGLADALTAPLDHKDKSLQSLTLDQSVRKNEKLKLAAQGAEKTYGNGDSLNTGKLKNDKVSRFDFIRQIEVDGQLITLESGEFQIYKQDHSAVVALQIEKINNPDKIDSLINQRSFLVSGLGGEHTAFNQLPSGKAEYHGKAFSSDDPNGRLHYSIDFTKKQGYGRIEHLKTPEQNVELASAELKADEKSHAVILGATRYGGEEKGTYHLALFGDRAQEIAGSATVKIREKVHEIGIAGKQ
With B5, the Fold-Decrease in fH binding in experiment [1] is over 50 fold.

B6: fHbp ID 22 T220A/H222A double mutant (protein)
chain: CSSGGGGVAADIGAGLADALTAPLDHKDKSLQSLTLDQSVRKNEKLKLAAQGAEKTYGNGDSLNTGKLKNDKVSRFDFIRQIEVDGQLITLESGEFQIYKQDHSAVVALQIEKINNPDKIDSLINQRSFLVSGLGGEHTAFNQLPSGKAEYHGKAFSSDDPNGRLHYSIDFTKKQGYGRIEHLKTPEQNVELASAELKADEKSHAVILGDTRYGGEEKGAYALALFGDRAQEIAGSATVKIREKVHEIGIAGKQ
Molecule B6 came in with a Fold-Decrease in fH binding in experiment [1] of over 50 fold.

B7: fHbp ID 22 G236I mutant (protein)
chain: CSSGGGGVAADIGAGLADALTAPLDHKDKSLQSLTLDQSVRKNEKLKLAAQGAEKTYGNGDSLNTGKLKNDKVSRFDFIRQIEVDGQLITLESGEFQIYKQDHSAVVALQIEKINNPDKIDSLINQRSFLVSGLGGEHTAFNQLPSGKAEYHGKAFSSDDPNGRLHYSIDFTKKQGYGRIEHLKTPEQNVELASAELKADEKSHAVILGDTRYGGEEKGTYHLALFGDRAQEIAISATVKIREKVHEIGIAGKQ
In experiment [1], B7 returned a Fold-Decrease in fH binding of over 50 fold.

B8: fHbp ID 77, wild-type (strain 8047, variant group 2, modular group VI) (other)
chain: CSSGGGGVAADIGARLADALTAPLDHKDKSLQSLTLDQSVRKNEKLKLAAQGAEKTYGNGDSLNTGKLKNDKVSRFDFIRQIEVDGQLITLESGEFQIYKQDHSAVVALQIEKINNPDKIDSLINQRSFLVSGLGGEHTAFNQLPDGKAEYHGKAFSSDDAGGKLTYTIDFAAKQGHGKIEHLKTPEQNVELAAAELKADEKSHAVILGDTRYGSEEKGTYHLALFGDRAQEIAGSATVKIGEKVHEIGIAGKQ
notes: Recombinant; also called ID 77 (VI); wildtype fHbp ID 77
Turning to B8, the “Fold-Decrease in fH binding” value in experiment [2] was found to be 0 fold.

B9: fHbp ID 77 R41S/K119A double mutant (other)
chain: CSSGGGGVAADIGARLADALTAPLDHKDKSLQSLTLDQSVSKNEKLKLAAQGAEKTYGNGDSLNTGKLKNDKVSRFDFIRQIEVDGQLITLESGEFQIYKQDHSAVVALQIEKINNPDAIDSLINQRSFLVSGLGGEHTAFNQLPDGKAEYHGKAFSSDDAGGKLTYTIDFAAKQGHGKIEHLKTPEQNVELAAAELKADEKSHAVILGDTRYGSEEKGTYHLALFGDRAQEIAGSATVKIGEKVHEIGIAGKQ
B9: the “fold decrease in fH binding” value in experiment [3] is about 5 fold. In experiment [2], the “Fold-Decrease in fH binding” value is over 5 fold.

B10: fHbp ID 77 R41S/D121A double mutant (other)
chain: CSSGGGGVAADIGARLADALTAPLDHKDKSLQSLTLDQSVSKNEKLKLAAQGAEKTYGNGDSLNTGKLKNDKVSRFDFIRQIEVDGQLITLESGEFQIYKQDHSAVVALQIEKINNPDKIASLINQRSFLVSGLGGEHTAFNQLPDGKAEYHGKAFSSDDAGGKLTYTIDFAAKQGHGKIEHLKTPEQNVELAAAELKADEKSHAVILGDTRYGSEEKGTYHLALFGDRAQEIAGSATVKIGEKVHEIGIAGKQ
For B10, in experiment [3], the “fold less binding to fH than wildtype fHbp ID 77” value is about 10 fold. The “Fold-Decrease in fH binding” value in experiment [2] is over 10 fold.

B11: fHbp ID 77 R41S/K113A/D121A triple mutant (other)
chain: CSSGGGGVAADIGARLADALTAPLDHKDKSLQSLTLDQSVSKNEKLKLAAQGAEKTYGNGDSLNTGKLKNDKVSRFDFIRQIEVDGQLITLESGEFQIYKQDHSAVVALQIEAINNPDKIASLINQRSFLVSGLGGEHTAFNQLPDGKAEYHGKAFSSDDAGGKLTYTIDFAAKQGHGKIEHLKTPEQNVELAAAELKADEKSHAVILGDTRYGSEEKGTYHLALFGDRAQEIAGSATVKIGEKVHEIGIAGKQ
Take B11: the binding result in experiment [3] is “no binding”. Moreover, the “Fold-Decrease in fH binding” value in experiment [2] was over 50 fold.

B12: fHbp ID 77 R41S/K113A double mutant (other)
chain: CSSGGGGVAADIGARLADALTAPLDHKDKSLQSLTLDQSVSKNEKLKLAAQGAEKTYGNGDSLNTGKLKNDKVSRFDFIRQIEVDGQLITLESGEFQIYKQDHSAVVALQIEAINNPDKIDSLINQRSFLVSGLGGEHTAFNQLPDGKAEYHGKAFSSDDAGGKLTYTIDFAAKQGHGKIEHLKTPEQNVELAAAELKADEKSHAVILGDTRYGSEEKGTYHLALFGDRAQEIAGSATVKIGEKVHEIGIAGKQ
As to B12, in experiment [3], the “fold less binding to fH than wildtype fHbp ID 77” value is about 10 fold. Also, the “Fold-Decrease in fH binding” value in experiment [2] was over 10 fold.

B13: fHbp ID 15 S41P mutant (other)
chain: CSSGGGGSGGGGVAADIGAGLADALTAPLDHKDKGLKSLTLEDSIPQNGTLTLSAQGAERTFKAGDKDNSLNTGKLKNDKISRFDFIRQIEVDGQLITLESGEFQVYKQSHSALTALQTEQVQDSEHSGKMVAKRQFRIGDIVGEHTSFGKLPKDVMATYRGTAFGSDDAGGKLTYTIDFAAKQGHGKIEHLKSPELNVDLAAADIKPDEKHHAVISGSVLYNQAEKGSYSLGIFGGQAQEVAGSAEVETANGIRHIGLAAKQ
notes: also called Pep 15 S41P
Regarding B13, the binding result in experiment [3] is listed as “no binding”. Also, the “Fold-Decrease in fH binding” value in experiment [2] is over 50 fold.

The record behind these values is patent publication US20110256180A1 (CHILDREN S HOSPITAL AND RESEARCH CENTER AT OAKLAND, published 2011).
